Experimental data reported in patent US20120093811A1 (published 2012).
Positions count from the first letter of the chain named.

T1: VEGF-D (recombinant human; source not given) (human, UniProt O43915 89-205, limits assumed)
T1 construct: also used here as target of IC50 values averaged over Source 1 and Source 2; also called vascular endothelial growth factor-D
T1 sequence: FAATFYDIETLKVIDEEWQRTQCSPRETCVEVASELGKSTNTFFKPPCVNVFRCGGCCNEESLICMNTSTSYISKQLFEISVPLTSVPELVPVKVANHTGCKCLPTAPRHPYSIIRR

B1: Source 1 VEGF-D, mature dimeric recombinant human VEGF-D (CSIRO) (ligand)
chain: T1 sequence
B2: Source 2 VEGF-D, purified recombinant human VEGF-D monomer (R&D Systems, Catalog Number 622-VD/CF) (ligand)
chain: FYDIETLKVIDEEWQRTQCSPRETCVEVASELGKSTNTFFKPPCVNVFRCGGCCNEESLICMNTSTSYISKQLFEISVPLTSVPELVPVKVANHTGCKCLPTAPRHPYS
B3: humanized IgG antibody derived from clone F61 (antibody, V domains shown)
VH: QVQLVQSGAEVKQPGASVKVSCKASGYTFTGYNMYWVRQAPGQGLEWMGYIDPYNGDTTYNQKFKGRVTMTTDTSTSTAYMKLRSLRSDDTAVYYCARTSYYGGMDYWGRGTLVTVAS
VL: DIVMTQTPLSSPVTLGQPASISCRSSQSLVHSNGNTYLHWLQQRPGQPPRLLIYKVSNRFSGVPDRFSGSGAGTDFTLKISRVEAEDVGVYYCSQSTHVPRTFGQGTKLEIKR
notes: IgG
B4: humanized IgG antibody derived from clone DI26 (antibody, V domains shown)
VH: B3 VH with E10K, V20A, N55S, K82E
VL: B3 VL
notes: IgG
B5: humanized IgG antibody derived from clone HW78 (antibody, V domains shown)
VH: B3 VH with S25R, S77G
VL: B3 VL
notes: IgG
B6: humanized IgG antibody derived from clone A63 (antibody, V domains shown)
VH: B3 VH with E10K, V20A, K82E
VL: B3 VL
notes: IgG
B7: humanized IgG antibody derived from clone AW61 (antibody, V domains shown)
VH: B3 VH with V68A
VL: B3 VL
notes: IgG
B8: humanized scFv 1A (scFv)
scFv: QVQLVQSGAEVKQPGASVKVSCKASGYTFTGYNMYWVRQAPGQGLEWMGYIDPYNGDTTYNQKFKGRVTMTTDTSTSTAYMELRSLRSDDTAVYYCARTSYYGGMDYWGRGTLVTVASGGGASGGGGSGGGGSDIVMTQTPLSSPVTLGQPASISCRSSQSLVHSNGNTYLHWLQQRPGQPPRLLIYKVSNRFSGVPDRFSGSGAGTDFTLKISRVEAEDVGVYYCSQSTHVPRTFGQGTKLEIKR
notes: also called 1A scFv; clone 1A

Key:
[1] = molecular target: VEGFR-2-EpoR chimeric receptor on VEGFR-2-Ba/F3 cells (mouse, UniProt P35918 20-762); assay: cell-based or functional assay
[2] = molecular target: B2; assay: SPR, KD against that of Ig-1A
[3] = molecular target: B2; assay: SPR, IgG captured by anti-human IgG (Fc), Source 2 VEGF-D monomer as analyte
[4] = molecular target: B1; assay: cell-based or functional assay
[5] = molecular target: B2; assay: cell-based or functional assay
[6] = molecular target: B1; assay: SPR Protocol B: VEGF-D dimer amine-coupled, IgG as analyte
Protocol: (§1) Protocol B: In the second assay format, Protocol B, the orientation of the IgGs and the VEGF-D antigen was reversed relative to Protocol A. The Source 1 VEGF-D dimer was immobilized directly on the chip surface by amine coupling and the murine anti-VEGF-D monoclonal antibody, Ig-1A or IgG variants flowed over this surface as analytes at concentrations of 4 nM, 1.33 nM, and 0.44 nM. This protocol allowed avidity effects to be controlled by reducing the density of dimeric VEGF-D immobilized on the chip and in effect reduce the bivalent binding properties of the system being analyzed.
(§2) All four flow cells on a CM5 chip were activated for 7 min at 25° C. using a mixture of NHS.EDC. Flow cell one was used as an unmodified (activated and blocked) reference against flow cells 2-4. Source 1 VEGF-D dimer was diluted to 1-3 μg/ml into 10 mM sodium acetate, pH 4, and injected over three surfaces for different lengths of time to achieve low ligand densities of 10, 15 and 20 RU to minimize avidity effects of the IgG. All surfaces were blocked for 7 min with ethanolamine (1M, pH 8.2) and pre-conditioned using five 10 s injections of 100 mM H₃PO₄; 1M NaCl. Immobilization steps were carried out at a flow rate of 30 μl/min using HBS-N running buffer.
(§3) All IgG binding experiments were performed at 25° C. using HBS-EP+ running buffer. Analytes (murine reference anti-VEGF-D monoclonal antibody and humanized variants) were injected for 200 s at a flow rate of 70 μl/min and dissociation monitored for 250 s. The antigen surfaces were regenerated with a 10 s pulse of 100 mM H₃PO₄; 1M NaCl. Analyte concentrations used for murine and humanized variants were 4 nM, 1.33 nM, and 0.44 nM. Data was processed using the reference surface and double referencing from blank injections. Binding constants for the IgG/antigen interactions were determined from the three antigen surfaces globally fitted to a 1:1 interaction model. Refractive index parameter was constant (RI=0).

[7] = molecular target: B1; assay: SPR Protocol A: IgG captured by anti-human Fc, VEGF-D dimer as analyte
Protocol: (§4) Protocol A: The first assay format, Protocol A, used an assay system where IgGs were captured on a biosensor chip surface using an anti-human IgG (Fc) antibody and the Source 1 VEGF-D dimer run over the chip as the analyte in solution. This ensured that all IgG molecules were presented to the antigen in an active orientation.
(§5) The SPR protocol was slightly modified to compensate for the dimeric nature of the VEGF-D. Ig-1A or IgG variants were analyzed using an anti-human capture kit as described for Anti-human IgG (Fc) capture above, except that 1000 RU of the IgG or IgG variant was captured on the anti-human chip surface. […] The kinetics generated using this approach are accurate within the experimental parameters set. This standard assay protocol is best suited to studying 1:1 interactions and thus, may not be ideal for analyzing binding between the IgG variants and the VEGF-D dimer. In light of this, Protocol B was also used.

[8] = molecular target: B1; assay: SPR Protocol B, KD against that of Ig-1A
Protocol: as §1, §2, §3

[9] = molecular target: B1; assay: SPR Protocol A, KD against that of Ig-1A
Protocol: as §4, §5

[10] = molecular target: T1, VEGF-D (recombinant human; source not …); assay: SPR (BIAcore), purified 1A scFv on VEGF-D, repeat 3
Protocol: (§6) Kinetic values were obtained for the three humanized scFv variants, 1A, 3A and 4A (Table 2). All isolated scFv samples were purified as monomer peaks by anti-FLAG affinity and gel filtration chromatography. BIAcore™ analysis was performed by directly immobilizing VEGF-D on a CM5 surface using amine coupling, with the scFv run as the analyte. Analysis of binding was carried out using the BIAevaluation kinetic analysis software. All repeats were separate protein expressions and were performed at 25° C.
(§7) The binding of purified 1A scFv to VEGF-D was analyzed using a BIAcore™ biosensor (Table 3).

[11] = molecular target: T1, VEGF-D (recombinant human; source not …); assay: SPR (BIAcore), purified 1A scFv on VEGF-D, repeat 2
Protocol: as §6, §7

[12] = molecular target: T1, VEGF-D (recombinant human; source not …); assay: SPR (BIAcore), VEGF-D amine-coupled on CM5, purified scFv as analyte
Protocol: scFv variants were fully characterized using a BIAcore™ biosensor. All isolated scFv samples were purified as monomer peaks by anti-FLAG affinity chromatography followed by gel filtration chromatography. BIAcore™ analysis was performed by directly immobilizing VEGF-D on a CM5 surface using amine coupling, with the scFv run as the analyte. Analysis of binding was carried out using the BIAevaluation kinetic analysis software. All repeats were separate protein expressions and were performed at 25° C.
Clones F61, A63, AR7, AW61, CJ37, DI126 and DA18 were produced in large-scale expression cultures and purified by anti-FLAG affinity chromatography and gel filtration. The binding kinetics against VEGF-D were then measured using a BIAcore™ biosensor as described previously.

[13] = molecular target: T1, VEGF-D (recombinant human; source not …); assay: SPR (BIAcore), purified 1A scFv on VEGF-D, average of three repeats
Protocol: as §6, §7

[14] = molecular target: T1, VEGF-D (recombinant human; source not …); assay: SPR (BIAcore), purified 1A scFv on VEGF-D, repeat 1
Protocol: as §6, §7

[15] = molecular target: T1, VEGF-D (recombinant human; source not …); assay: SPR (BIAcore), VEGF-D amine-coupled on CM5, purified scFv as analyte, 25 C
Protocol: as §6

VEGFR-2-EpoR chimeric receptor on VEGFR-2-Ba/F3 cells, sequence (P35918 20-762, stated change not applied): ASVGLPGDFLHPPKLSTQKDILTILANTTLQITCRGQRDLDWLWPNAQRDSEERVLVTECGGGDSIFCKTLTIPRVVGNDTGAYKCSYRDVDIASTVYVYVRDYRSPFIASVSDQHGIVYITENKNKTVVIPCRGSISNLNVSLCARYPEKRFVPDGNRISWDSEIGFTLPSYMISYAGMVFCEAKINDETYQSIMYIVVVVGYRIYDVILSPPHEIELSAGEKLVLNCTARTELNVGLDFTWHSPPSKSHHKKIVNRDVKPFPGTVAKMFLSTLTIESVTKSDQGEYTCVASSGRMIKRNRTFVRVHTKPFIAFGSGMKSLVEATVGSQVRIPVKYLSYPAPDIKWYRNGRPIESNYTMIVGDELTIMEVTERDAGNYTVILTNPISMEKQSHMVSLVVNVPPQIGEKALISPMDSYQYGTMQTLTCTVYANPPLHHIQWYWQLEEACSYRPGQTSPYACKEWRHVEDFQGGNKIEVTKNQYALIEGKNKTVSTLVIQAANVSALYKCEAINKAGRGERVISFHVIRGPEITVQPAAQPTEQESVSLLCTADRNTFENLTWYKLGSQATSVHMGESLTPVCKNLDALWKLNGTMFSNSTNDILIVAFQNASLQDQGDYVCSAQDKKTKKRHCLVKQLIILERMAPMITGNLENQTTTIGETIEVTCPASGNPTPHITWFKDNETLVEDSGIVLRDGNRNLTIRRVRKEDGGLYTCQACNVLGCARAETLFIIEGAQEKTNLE

With B1 the “concentration within EC50-EC80 for proliferation of VEGFR-2-Ba/F3 cells” value [1] was 0.005 µg/mL.

With B2 the “concentration within EC50-EC80 for proliferation of VEGFR-2-Ba/F3 cells” value [1] was 0.1 µg/mL.

For B3, the “Fold-improvement with respect to Ig-1A” value [2] was 1.8 fold, the Kd [3] was 5 nM and the koff [3] was 0.00824 s⁻¹. The “rank in the VEGFR-3-Ba/F3 bioassay” value [4] was 5 rank and the “rank in the VEGFR-3-Ba/F3 bioassay” value [5] was 8 rank.

In the case of B4, the “Fold-improvement with respect to Ig-1A” value [2] is reported as 2.2 fold, the Kd [6] is reported as 0.88 nM and the koff [6] is reported as 0.0012 s⁻¹. It also gave a kon [6] of 1.3e+06 M⁻¹ s⁻¹, a Kd [3] of 4.1 nM and a koff [3] of 0.0041 s⁻¹. It also gave a kon [3] of 1e+06 M⁻¹ s⁻¹, a Kd [7] of 0.699 nM and a koff [7] of 0.00039 s⁻¹. For the same binder, the kon [7] was 560000 M⁻¹ s⁻¹, the “Fold-improvement with respect to Ig-1A” value [8] was 2 fold and the “Fold-improvement with respect to Ig-1A” value [9] was 1 fold. For the same binder, the “rank in the VEGFR-3-Ba/F3 bioassay” value [4] was 2 rank and the “rank in the VEGFR-3-Ba/F3 bioassay” value [5] was 2 rank.

Binder B5 has a Kd [6] of 0.32 nM, a koff [6] of 0.0018 s⁻¹ and a kon [6] of 5.4e+06 M⁻¹ s⁻¹. The Kd [7] was 0.342 nM, the koff [7] was about 0.00018 s⁻¹ and the kon [7] was 510000 M⁻¹ s⁻¹. For the same binder, the “Fold-improvement with respect to Ig-1A” value [8] was 5.5 fold, the “Fold-improvement with respect to Ig-1A” value [9] was 2 fold and the “rank in the VEGFR-3-Ba/F3 bioassay” value [4] was 4 rank. For the same binder, the “rank in the VEGFR-3-Ba/F3 bioassay” value [5] was 7 rank.

B6 was tested, and the “Fold-improvement with respect to Ig-1A” value [2] was 1.3 fold, the Kd [3] was 7 nM and the koff [3] was 0.00677 s⁻¹. For the same binder, the kon [3] was 970000 M⁻¹ s⁻¹.

For B7, the “Fold-improvement with respect to Ig-1A” value [2] was 2.2 fold, the Kd [3] was 4.1 nM and the koff [3] was 0.00725 s⁻¹. For the same binder, the “rank in the VEGFR-3-Ba/F3 bioassay” value [4] was 6 rank and the “rank in the VEGFR-3-Ba/F3 bioassay” value [5] was 4 rank.

B8 was tested, and the Kd [10] was 14.8 nM, the koff [10] was 0.0104 s⁻¹ and the kon [10] was 707000 M⁻¹ s⁻¹. It also gave a Kd [11] of 10.4 nM, a koff [11] of 0.011 s⁻¹ and a kon [11] of 1.06e+06 M⁻¹ s⁻¹. For the same binder, the Kd [12] was 13.1 nM, the koff [12] was 0.0108 s⁻¹ and the kon [12] was 845000 M⁻¹ s⁻¹. The Kd [13] was 13.1 nM, the koff [13] was 0.0108 s⁻¹ and the kon [13] was 845000 M⁻¹ s⁻¹. The Kd [14] was 14.2 nM, the koff [14] was 0.0109 s⁻¹ and the kon [14] was 769000 M⁻¹ s⁻¹. It also gave a Kd [15] of 13.1 nM, a koff [15] of 0.0109 s⁻¹ and a kon [15] of 769000 M⁻¹ s⁻¹.
